The values below come from article PMC6377682 (2019).

B1: human ASPP2^920-1120 [human] / PP1α^301-330 C-tail peptide [human] (parent complex)
chain 1: MRVKFNPLALLLDSSLEGEFDLVQRIIYEVDDPSLPNDEGITALHNAVCAGHTEIVKFLVQFGVNVNAADSDGWTPLHCAASCNNVQVCKFLVESGAAVFAMTYSDMQTAADKCEEMEEGYTQCSQFLYGVQEKMGIMNKGVIYALWDYEPQNDDELPMKEGDCMTIIHREDEDEIEWWWARLNDKEGYVPRNLLGLYPRI
chain 2: KNKGKYGQFSGLNPGGRPITPPRNSAKAKK
B2: human ASPP1^882-1090 [human] / human PP1β^6-327 [human] (parent complex)
chain 1: LRVRFNPLALLLDASLEGEFDLVQRIIYEVEDPSKPNDEGITPLHNAVCAGHHHIVKFLLDFGVNVNAADSDGWTPLHCAASCNSVHLCKQLVESGAAIFASTISDIETAADKCEEMEEGYIQCSQFLYGVQEKLGVMNKGVAYALWDYEAQNSDELSFHEGDALTILRRKDESETEWWWARLGDREGYVPKNLLGLYPRIKPRQRTLA
chain 2: LNVDSLITRLLEVRGCRPGKIVQMTEAEVRGLCIKSREIFLSQPILLELEAPLKICGDIHGQYTDLLRLFEYGGFPPEANYLFLGDYVDRGKQSLETICLLLAYKIKYPENFFLLRGNHECASINRIYGFYDECKRRFNIKLWKTFTDCFNCLPIAAIVDEKIFCCHGGLSPDLQSMEQIRRIMRPTDVPDTGLLCDLLWSDPDKDVQGWGENDRGVSFTFGADVVSKFLNRHDLDLICRAHQVVEDGYEFFAKRQLVTLFSAPNYCGEFDNAGGMMSVDETLMCSFQILKPSEKKAKYQYGGLNSGRPVTPPRTANPPKKR
B3: human ASPP2^920-1120 [human] / human PP1β^6-327 [human] (parent complex)
chain 1: B1 chain 1
chain 2: B2 chain 2
B4: PP1α^301-330 C-tail peptide [human] / human ASPP2^920-1120 [human] (parent complex)
chain 1: B1 chain 2
chain 2: B1 chain 1

The variants in the first assay derive from B1. The experiment in a line: ITC.
As to chain 1 D172G, chain 1 E173P, the Kd was found to be 172 nM.

The variants in a further assay derive from B2. Description: BLI.
Regarding chain 1 K171E, chain 1 S174D, the Kd worked out at 84.4 nM.

The variants in another assay derive from B3. Description: BLI.
As for chain 1 D174S, the Kd was found to be 136 nM.

chain 1 E171K, chain 1 D174S: the equilibrium dissociation constant (Kd) was determined as 178 nM.

The variants in another assay derive from B4. Description: ITC.
As to chain 1 K30A, the Kd is 326 nM.

On to chain 1 K29A, for which the equilibrium dissociation constant (Kd) worked out at 342 nM.

Regarding chain 1 K27A, the Kd is 520 nM.
